The text below walks through data of the domain aggregation screens of Martell et al. (2025).

The data set can be described thus: soluble fraction after stress (log2 fold change); higher = more stays soluble; pooled small domains, quantitative proteomics. To be noted: stress: 75 degC.
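Further: 20 min heating vs room temperature control held 20 min.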

“HMAGGNHPTRLELLDSAAHIAERDGTSALTVDAITKSAGHAKGTFYIHFDDRADLLVEMHRR”: the “soluble fraction (log2)” value was -0.247.
On to “HMAGIPIHMSQLKQIILLLSQGYPIKGIARETGVSRNTIKGYLQTLTSQDLNVTDALKLENIQLEYLLRSP”, for which the “soluble fraction (log2)” value was -1.97.
Regarding “HMAGLYSLLLVELPMERLPEDLPAIKAAWLKTGDTEAFKVALQAMSSRGWTIAVPGKHRDTQMTQL”, the “soluble fraction (log2)” value is 0.259.
On to “HMAGPVLTPEEAEVLRILADHGEMTVDNISAEGKMSAAVVLRGLGVLSAYGLVAPGGPGRWRSE”, for which the “soluble fraction (log2)” value is -0.806.
As for “HMAGTDLSERESEIAMLLLKGYPYKLIASRLYISESTVKSHVQNIYGKLGIHSRTELIEQFSAS”, the “soluble fraction (log2)” value was -0.649.
In the case of “HMAGTPAIVKWFNPTKGFGFVTPKEAGSDALLHASVLAKRGKRWLQEGTLVEVLIEEGPKGLVVSELLTIE”, the “soluble fraction (log2)” value is -0.84.
Regarding “HMAGTRRFELVEGSSSKFWEVTVADGSYTVTYGRIGTAGGSKTTESATAEADAEKLVREKLKKGYQEAGAA”, the “soluble fraction (log2)” value was 0.102.
As to “HMAGTRVWSENGQLYVTAAVSGRANVYNVLGKLNRSLTFSAGETKSVSVPAGIYVVSLNNGKAYKVAV”, the “soluble fraction (log2)” value is -3.28.
Take “HMAGWIPVEERLPDDLTNPITRDAYVYPVTVDLGDVTDIRYYSFWRGHWYNQGPETMDDLVIAWMLLPEPY”: the “soluble fraction (log2)” value was -0.279.
Regarding “HMAHESYVKEQLLLSLTNHEDPIMQISLIEQLTKMHERNIIHELEKLTVDVQTNEEVKVQAYASLLILS”, the “soluble fraction (log2)” value was -0.869.
Take “HMAHKYYSIMRPVSIGTFPDNGTILGIVNFDTRQMVESIGKMAWGYINYGKPLTEKQISDYELVAE”: the “soluble fraction (log2)” value was -1.4.
As to “HMAHLNYQTVDINALIRHSLQLVSQDAQSRGIALQFTPRPELTTISADPDRLNQVLLNLYLNAMQD”, the “soluble fraction (log2)” value is -0.607.
As for “HMAHLSPNDAARLVGVSRPLLNQILDEGRITFFETAGGHRKIKLAAVLAYIKERDEVAAQLAAART”, the “soluble fraction (log2)” value is -0.724.
For the sequence “HMAHSDEAWSVARRVARELDKILDGAGPRRTALVRAAAELRLSTRQIYNLLARYRADRTVTSLLPRR”, the “soluble fraction (log2)” value was -0.27.
On to “HMAHSWEAIRVKLQQIIDEEDKTKPLNDDQIKEKLAEAGIPNLARRTVAKYRKLLNIPTARFRKR”, for which the “soluble fraction (log2)” value was -0.993.
As to “HMAIDINKIYSEIKKKIPNQDNHIKEILSIIWRDFNNYQNIKSRSILINGEKSSPKKEIFNIIEDNINIPV”, the “soluble fraction (log2)” value stood at 0.0633.
As for “HMAIDPLLDKGYEQYDKGEFTEAVKSFNRAIEIDPKNAEAHFLRAMTYQGLALSKLAVADLEKAIV”, the “soluble fraction (log2)” value was found to be 0.0903.
The same measure for “HMAIGDYYINASALNVRSGEGTNYRIIGALPQGQKVQVISENSGWSKINYNGQTGYIGTRYLSKTPV”: -0.264; for “HMAIHTSVTEHGEHDLTVRMEMEQVFAIEMAVVSHEQATMLERTFKANAEAIYQKLLGVMTQEYP”: -2.42; for “HMAISEEEATNLALERVPGASAQDLRIQLEFDDGVQKYEGDIIYDGKEYDFEIDANTGTFLEWSE”: -0.0521.
Take “HMAISSADRIVAELRTWISGASPGTQLPSSRTLAARYGASPVTVQKALHTLAGMGLVEARPGAGTFVRRQS”: the “soluble fraction (log2)” value is -1.42.
With “HMAITVPEGATLSDAAVLLKQAGAVRSADAFLTRAKVFGGSTPIKAGEFVIPVQASNKDILAILQGGK”, the “soluble fraction (log2)” value stood at 0.0742.
For “HMAKIATTVYEQIRTAILNGELSNSERLVEEDLAVSMGISRTPVREALRRLAAEGLVDVSPNRGARVAE”, the “soluble fraction (log2)” value was -0.27.
Turning to “HMAKINFTSDAIDIGMVTRNDIEMLSFYQNVLGLTKDMEIPFPGLGVVNKLSFGSGFIKILVL”, the “soluble fraction (log2)” value is 0.0804.
Regarding “HMAKLGITQREQEVLQLLVTGKTYKEIAAELFISLPTVKTHVSNIYSKAKVRNRLELSNLINYI”, the “soluble fraction (log2)” value was -3.37.
In the case of “HMAKNYYEILGLKSDATLPEIKKAFKKLSKKFHPDKNRDDDGYFESMFKSINEAYQVLIDEDKRATFDSHH” it was -0.758; in that of “HMAKPAALLFEHRFDGMAEMRFRENIVKNDDGSYTYDEYFLSMLDRAGLEKIVQENMEVWIAYAKQ”, -2.1; in that of “HMAKPVKSPLPGSVIKVAVKVGQQIKRGDLLLTLESMKMENSILAEKDGVVKNIHVQAGQSVMQDDLLLDI”, -0.88.
Turning to “HMAKPVNISAEPYHYDPTRFRVTFELPRLSDQPRKRIRKVAPAGLDREQALAWAKRLEREVLHELLR”, the “soluble fraction (log2)” value was -1.08.
In the case of “HMAKVSVNIILKDGVDQTTFVNDVTSNTEVDLKNQLISLPQMVVLSVEEDYINTLKSHSSISILELDE”, the “soluble fraction (log2)” value is -0.296.
In the case of “HMALALDDLFDRYEQLQDQSLGDKTEEGQELRAMIRAYIEQEGLSVRVTRSTTNRELLELIEQEMEG”, the “soluble fraction (log2)” value is -0.306.
Regarding “HMALENTDLYAHLRLSHTASVPEIQAALSARVKHMPLQTWLLARKWLLHPRLRERYDGMWSVRFGA”, the “soluble fraction (log2)” value was -2.87.
“HMALGRTGEVYLPIPAGRAGHGKISITLQGALREVDAVTAGEALPRGTSVRVVDVAGNGVLLVEK”: the “soluble fraction (log2)” value is -0.206.
In the case of “HMALHDTLSYEEYLDLGLNGKADSAEKRELVAHALHLGRPNAKTLYKRLNMLQLNRKDVAALLEQ” it was 0.097; in that of “HMALHLPTTTINGRQYYYFKSKEKITVYGLSKRLGLTRQEIVEHNPSAVDGIKRGSTLYFPVDEFAD”, -2.12.
In the case of “HMALLKRQDEILMYLYTQNKWITGNELAQLFHVSLRTIRNDISFINTEKSNSVLSNRNKGYHIAKDFVYNE”, the “soluble fraction (log2)” value was -1.26.
For “HMALPDSEKRQWLVDEVNERGLKLPDDVLEYLFARVGRSQAHLVDVIEKLDFESLAQSRKLTIPFVREVLK”, the “soluble fraction (log2)” value was -0.225.
With “HMALPRYFFRTRENGAVLFKTPVNNHQNRLEMHQIAAINIRNETVKPLGDTVLTDEETELIADWMRERKTV”, the “soluble fraction (log2)” value was -0.782.
For “HMALSVRNRMSDLLRMLGDGEFHRFENLFSLEEGRHGIVVTFLAMLELAKEQLVEISQGESLAPIYLKSLA”, the “soluble fraction (log2)” value is -1.05.
“HMAMDVKEVLLPGVGLRYEFDNSDGDRIGVIAKRSGDFEVVRYTAADRDAAQPMFRLTDEEADALAQILGA”: the “soluble fraction (log2)” value amounted to 0.224.
For the sequence “HMAMDYYAIGQRIRKFRKAHDWSQEELAEKVEISTTHMSHIETGSTKLSLPVLVSLANVLDVRTDDLLF”, the “soluble fraction (log2)” value was -3.81.
The same measure for “HMAMKFQDIVRQKRKELGLTQEQAARRLGVSPAAVSKWESGQSLPDTPLFAPLARLLHTDLNTLLSFE”: -1.21.
“HMAMTQNVDLAGRIVFNEKKEEVFNFGKHKGRSVAEVFEKEPSYYDWMLKGDFPAETKQVLTALRLRGLS”: the “soluble fraction (log2)” value is -0.186.
Take “HMAMTRTEYLNQLKHYLKRLPHTDYEEAMDYFKEYFEEAGPENEAQVIQDLGNPKEAAYEILSQLL”: the “soluble fraction (log2)” value is -0.0595.
The same measure for “HMANDNFPLKLGSKGPRVLQLKTMLIQSLSNDALPKGRSSDAFDSELEALLSRNNLPTVIDETNFRVLTK”: -0.0514.
“HMANFGSILRNLRISRDITQSELAAKLGVSRSTVGMYETGAREPDFEAMEAIADTFNVDMDYLVGRSQ”: the “soluble fraction (log2)” value was -0.258.
“HMANLAQITKTNAVALALKDVGAYNSEDLMKFIDLDKVVLGEDGKPQLEDTINSLKESSPYLFQ”: the “soluble fraction (log2)” value came out at 0.134.
“HMANMTAKQINMFGDKLSRDKDFQSYYIAKSGDSREQYAQDIKGKLLDPFYVNAWMPYLEKIGFVPS”: the “soluble fraction (log2)” value turned out to be 0.0935.
In the case of “HMANPEFAGYINGKPYFGPTHQHRGVKMLGATHTRNPHPLVWDSIAESLANYDSRFRWSGGQIL” it was -0.853; in that of “HMANTAKVNVDTANLRETADENSKILKQLSLNDNLEVVEETGDWYKVKNSNVTGYVRKDLVTVEN”, 0.31.
In the case of “HMANTLDPMDLKQIISLHLDGFSNRKIGATLGISRNTVNTYMRLFSVSDYALKELLTLDNATLDKLFPS”, the “soluble fraction (log2)” value was -2.06.
For the sequence “HMANYYEILGVKHDATEAEIKAAYKQAAKSAHPDAGGSNEKMQEVNAAWEVLGNAQKRAEYDARMA”, the “soluble fraction (log2)” value came out at 0.173.
On to “HMAPAGGITRQDLFAWGLMGGEGSREKRQQLKKSLGLPSHLGTSGFLDALNLIATRDQVEALLHK”, for which the “soluble fraction (log2)” value is -0.564.
The same measure for “HMAPAILTVQVKPDKIREIIGPGGKMIRMIQSETNTRVEVDDSGLVKIAAVSKEEGEAALKMVSDITME”: 0.331.
“HMAPDAPDGFVHRWIRAEMLGQEDKSNVHRRMQEGYELVRADEYPDSDLPVAEGRYAGIIGVGGLLLARF”: the “soluble fraction (log2)” value is -0.206.
In the case of “HMAPDDTAVWSAFIGWFRTAPDGPNPLGAYAAKLGEEGLDAAEVGRRMTVIVRLFAEKPEGAEVFYDRTYA” it was -2.66.
On to “HMAPDYYALLGVPRNATTAEVRKAFRGKALEQHPDRGGDEESFRLLSKAYDVLSDSERRKYYDRTG”, for which the “soluble fraction (log2)” value was -0.0151.
Consider “HMAPEKLVHELVGLSLRAGNLDLLAATLSAHKTVLSKESTAEYVKAGLAIEPNHLPLRVLAEQDLGWS”, for which the “soluble fraction (log2)” value was -1.17.
“HMAPFVIQQGQDVRLISKGPGFAVSNDGKALTNAAEGQLARARTANGQTVSGIARQGGIIEIA”: the “soluble fraction (log2)” value is -0.0321.
“HMAPGIGDSKYFSHIYEMKHIDTIIDNDKGDRLIEHFEIQDTPFIFTKHWTSAFGFSKRQQEIITDYLSYF”: the “soluble fraction (log2)” value stood at 0.12.
For “HMAPGVHVEALLPYTAGSLVSQIREYGNVDAVEYRDTGILLQADVDERLAAQIMDQALEDPV”, the “soluble fraction (log2)” value was found to be 0.0715.
In the case of “HMAPLADQIVDLLKEHDGFLPLHDNSSPEDIRATVGTSKKAFKQAIGGLFREKRIVIGPTGIRLIS”, the “soluble fraction (log2)” value was -0.694.
For “HMAPLATIHVSSLSQKPFYLYGTFEDRRGNHLFFLEQIMGENKSIPVAMPSSAINPKIHASLTPPKG”, the “soluble fraction (log2)” value was -0.494.
For “HMAPLQDENGDLTFSYNGKTYTVNVNSEEDRNSFAEDFNKENGKKFSWFKERAGLQHYVFYDTEM”, the “soluble fraction (log2)” value is -0.00699.
With “HMAPLVTLEADGNGAVKLSNLAGHSIREVAGALGGAGLSLIPVGSGTSWKQNPAPGTVLHSGDTVTVYF”, the “soluble fraction (log2)” value was 0.177.
Consider “HMAPPIQQQVESLMNSFAKIGVTVPMLESRLQHAMSAVTANELVMLRKIGASIRDGFATVAEQFPA”, for which the “soluble fraction (log2)” value is -1.14.
Take “HMAPPPPEGYIHRWIRESVMGFDDKKNLSARIREGFELVRAEEYPDYEAPTVMDGKHAGVIANGGLLLARF”: the “soluble fraction (log2)” value was -0.201.
For the sequence “HMAPQQARAAKTRVKLLDAAATVVRRDGIQAMTLARVAEEAGVSKGGLLHHFGSKEELVTGMLEQ”, the “soluble fraction (log2)” value was -0.21.
Take “HMAPRASDALTERELDVLRVVADGASVAEAAEMLVVSRETVKKHLGNIYAKLGVHSKMQAVALLREEGV”: the “soluble fraction (log2)” value was -0.788.
As to “HMAPRKNIRLLRAAQDKAAAEGDHETVDAIRGQIAALIETLPVQYREEYLLQEKGRENGLKLAIENAAK”, the “soluble fraction (log2)” value is 0.663.
